Patent US6613506B1, “Compositions and methods for inhibiting human immunodeficiency virus infection by down-regulating human cellular genes” (Subsidiary No. 3, Inc., priority 2000, dated 2003)

Tested on: HIV-1IIIB
Assay: Selection of GSEs from HeLa cell library using productive infection of CEM-ss cells
Format: cell-based
Experimental: Additionally, a normalized RFE library made from HeLa cells was transferred into CEM-ss cells and the neo resistant population was infected with TCID50 of 3000/10^6 cells of HIV-1IIIB. This RFE library was represented by 50×10^6 independent recombinant clones. Four and seven days after infection, a purified anti-CD4 monoclonal antibody, L77 (available from Becton Dickinson), was added at 5 Φg/mL to prevent syncytia formation. Syncytia formation is thought to be prevented by blocking the interaction between gp120 expressed on the surface of an infected cell and CD4 on the surface of an uninfected cell. […] At 10-12 days after infection, CD4^+, p24^− cell population representing uninfected cells were sorted. Genomic DNA from the CD4^+, p24^− cells was purified and used for PCR amplification of inserts with the vector-derived primers. The amplified mixture was digested with EcoRI and BamHI and cloned back into the retroviral vector. The selection was repeated for additional rounds.
The selection of GSEs from HeLa cell library using productive infection of CEM-ss cells isolated […] additional nucleic acid molecules which have substantial sequence identity with other cellular genes.
The selection of GSEs from a HeLa cell library using productive infection of CEM-ss cells isolated 21 additional nucleic acid molecules which have substantial sequence identity with other cellular genes. […] The complement of SEQ ID NO:25 is represented by SEQ ID NO:26. […] The complement of SEQ ID NO:27 is represented by SEQ ID NO:28. […] The complement of SEQ ID NO:29 is represented by SEQ ID NO:30. […] The complement of SEQ ID NO:31 is represented by SEQ ID NO:32. […] The complement of SEQ ID NO:33 is represented by SEQ ID NO:34. […] The complement of SEQ ID NO:35 is represented by SEQ ID NO:36. […] The complement of SEQ ID NO:37 is represented by SEQ ID NO:38. […] The complement of SEQ ID NO:39 is represented by SEQ ID NO:40. […] The complement of SEQ ID NO:41 is represented by SEQ ID NO:42. […] The complement of SEQ ID NO:43 is represented by SEQ ID NO:44. […] The complement of SEQ ID NO:45 is represented by SEQ ID NO:46. […] The complement of SEQ ID NO:47 is represented by SEQ ID NO:48. […] The complement of SEQ ID NO:49 is represented by SEQ ID NO:50. […] The complement of SEQ ID NO:51 is represented by SEQ ID NO:52. […] The complement of SEQ ID NO:53 is represented by SEQ ID NO:54. […] The complement of SEQ ID NO:55 is represented by SEQ ID NO:56. […] The complement of SEQ ID NO:57 is represented by SEQ ID NO:58. […] The complement of SEQ ID NO:59 is represented by SEQ ID NO:60. […] The complement of SEQ ID NO:61 is represented by SEQ ID NO:62. […] The complement of SEQ ID NO:77 is represented by SEQ ID NO:78. […] The complement of SEQ ID NO:87 is represented by SEQ ID NO:88. […] The complement of SEQ ID NO:99 is represented by SEQ ID NO:100. […] The complement of SEQ ID NO:101 is represented by SEQ ID NO:102. […] The complement of SEQ ID NO:103 is represented by SEQ ID NO:104. […] The complement of SEQ ID NO:105 is represented by SEQ ID NO: 106. […] The complement of SEQ ID NO:107 is represented by SEQ ID NO:108. […] The complement of SEQ ID NO:109 is represented by SEQ ID NO:110. […] The complement of SEQ ID NO:111 is represented by SEQ ID NO:112. […] The complement of SEQ ID NO:113 is represented by SEQ ID NO:114. […] The complement of SEQ ID NO:115 is represented by SEQ ID NO:116. […] The complement of SEQ ID NO:117 is represented by SEQ ID NO:118.

| Molecule | HIV-suppressive activity of the GSE and active orientation |
| --- | --- |
| CF-321: GSE, SEQ ID NO:29, sense; rat guanine nucleotide releasing protein gene (sense AGTTCCTTTTACTTTTTAATCTTTCCTTAAAGCACGCCTGTGTTGGGCTAACGA; listed as Homo sapiens) | interferes with HIV replication in the sense orientation |
| CF-332: GSE, SEQ ID NO:33, antisense; lymphocyte-specific protein 1 gene (antisense AACACCCATAGTAGGCCTAAAAGCAGCCACCAATTAAGAAAGC; listed as Homo sapiens) | interferes with HIV replication as an antisense molecule |
| CF-528: GSE, SEQ ID NO:43, sense; GTP binding protein gene (sense AGTGCTTTAACGATGTCACAGCTATCATTTACGTCGCAGCCTGCAGTAGCTACAACATG; chemistry not fully specified; listed as Homo sapiens) | interferes with HIV infection in the sense orientation |
| CF-537: GSE, SEQ ID NO:25, sense; human bone morphogenic protein-1 gene (sense GGTCCACCATGGCCCTGCTGCACTCCGGCCGCGTCCTCCCCGGGATCGCCGCCGCCT; chemistry not fully specified; listed as Homo sapiens) | interferes with the HIV life cycles in the sense orientation |
| CF-204: GSE, SEQ ID NO:9, antisense; human calnexin gene (nucleic acid, listed as Homo sapiens) antisense: GGTTGTCAATCACAGGTCGCCAGGAGACACCACATCCAGGAGCTGACTCACATCTAGGGTTGGCAATCTGAGGAGCCTCCCATTCTCCATCCATGTCTTCATCCCAA | suppresses HIV infection as an antisense molecule |
| CF-317: GSE, SEQ ID NO:17, antisense; human phosphatidylinositol 3-kinase gene (nucleic acid, listed as Homo sapiens) antisense: CCAAGCTTCCTATCTTAAGCTGGGCGTTGATATCCAGGTCACAACTATAGATGTAGTGAAACTTCTCTGCTTCCCCCATCGCACCGTCTGCAAAGGTACCACC | suppresses HIV infection as an antisense molecule |
| CF-529: GSE, SEQ ID NO:45, antisense; importin beta subunit gene (nucleic acid, listed as Homo sapiens) antisense: GGAGTGTGCACGGATGCTGAATGTTTGGGAATGAGAGGATGAGTGAGTGAGGCTTGAAAACACACCACATTGAAAATCCTGCCACAGCAGCAGCCGCAGCCGCCAACAGCAGCGCTGTTAGTGAGCTAAGTAAGC | interferes with HIV replication as an antisense molecule |
| CF-311: GSE, SEQ ID NO:12, antisense; human protein tyrosine phosphatase gene (nucleic acid, listed as Homo sapiens) antisense: GGGGGCTCTGTTTGGTGGTCTCTCTAGCTGCACTGGTCTATCAAGCTGTTGGCTGGTCTCTCTCTCTGGCTGGGGATC | suppresses HIV infection as an antisense molecule |
| CF-302: GSE, SEQ ID NO:16, antisense; human CD44 gene (nucleic acid, listed as Homo sapiens) antisense: GATCCCTGGGCGCGGGGCAGGGGCCGGCGGAGGACGGGACGAGGATGGCGGACCGAACCTGGCAGAGGCTGGG | suppresses HIV infection as an antisense molecule |
| CF-286: GSE, SEQ ID NO:18, sense; human elongation factor-1α gene (nucleic acid, listed as Homo sapiens) sense: CAGTTGGGGTGGGTGTCATCAAAGCAGTGGACAAGAAGGCTGCTGGAGCTGGCAAGGTCACCAAGTCTGCCCAGAAAGCTCAGAAGGCTAAATGAATATTATCCCTAATACCTGCCACCCCACTCTTAATCAGTGGTGGAAGAAC | suppresses HIV infection as a sense molecule |
| CF-266: GSE, SEQ ID NO:15, antisense; human eIF4B gene (nucleic acid, listed as Homo sapiens) antisense: GCCGTTCTTCTACTTCTCTTTCTCAAGCAGCAGTGTCAACAGGCTTTGCCCCTCCAAAGATAGAAGCAGCTCGAGTGGACTGGGAGGTACTAGCAGA | suppresses HIV infection as an antisense molecule |
| CF-210: GSE, SEQ ID NO:14, sense; herpesvirus-associated ubiquitin-specific protease gene (nucleic acid, listed as Homo sapiens) sense: GCATTACAAAGAGTGTTCTATGAATTACAGCATAGTGATAAACCTGTAGGAACAAAAAAGTTAACAAAGTCATTTGGGTGGGAAACTTTAGATAGCTTCATGCAACATGATGTT | suppresses HIV infection as a sense molecule |
| CF-004: GSE, SEQ ID NO:7, sense; human 2-oxoglutarate dehydrogenase gene (nucleic acid, listed as Homo sapiens) sense: GCGCAAAGCACGCGACATGGTGGGGCAGGTGGCCATCACAAGGATTGAGCAGCTGTCGCCATTCCCCTTTGACCTCCTGCTGAAGGAGGTGCAGAAGTACCCCAA | suppresses HIV infection as a sense molecule |
| CF-313: GSE, SEQ ID NO:13, sense; human protein tyrosine phosphatase gene (nucleic acid, listed as Homo sapiens) sense: CATTTTGTTACATAAGGATGACTTTTTTATACAATGGAATAAATTATGGCATTTCTATTGAAATTTCAACGCTTTTGTTTCTTTGGCAACCACAC | suppresses HIV infection as a sense molecule |
| CF-531: GSE, SEQ ID NO:47, antisense; cell adhesion molecule L1 gene (nucleic acid, listed as Homo sapiens, chemistry not fully specified, cell adhesion molecule L1 gene) antisense: CTGGGTCCCCAAGGAGGGCCAGTGCAACTTCAGGTTCCATATCTTGTTCAAAGCCTTGGGAGAAGAGAAGGGTGGGGCTTCCCTTTCGC | interferes with HIV replication as an antisense molecule |
| CF-545: GSE, SEQ ID NO:49, antisense; U-snRNP associated cyclophilin gene (nucleic acid, listed as Homo sapiens) antisense: CTTCTTGGTGGTGTTCTTGAGTAAGATAATCTGGACTGGCCCCCGTCTTTGCTTCCCTGCCTGCTGCTGCCCCATTTGATCAAGAGACCATGGAAGTGTCAGAGATTCAGAATCCAAGATTGTCTTTAAGTTTTCAACTGTAAATAAAGTTTTTTTGTATGCGTAAAAAAAGCTCGTGCCT | interferes with HIV replication as an antisense molecule |
| CF-280: GSE, SEQ ID NO:20; portion of an unknown human cellular gene (nucleic acid, listed as Homo sapiens) DNA: GTGCCGTATGAATATACAAAATAATGGCATCAGGGATCCCTGTGCTCATTCACATAGCTAGGGACAACAGGATTTCATCTCCAGGAAACTCAGTAGTATACTTTTGTGACTTCTCTCTTTAAGCACCAAAGCATACTTTCAGGGAAAAACAAAAAAGAGATTAAAAATGTAAAGAATTCTTTCATGCTGCTTGGAGAGGTGAGGGAAGGTAGCCCACTGAAAGTGACAGAGAA | selected in CEM-ss cells |
| CF-273: GSE, SEQ ID NO:11, sense; eukaryotic translation initiation factor 3 gene (nucleic acid, listed as Homo sapiens) sense: GCTCGTCAGTGTCCACCCCTCCTCGCAACTCCAGGCGCTCCTTTTTCTGCTCCATATAGAGCTCCTGGGCCATTTTCCGGTACTTCCGGAAATCTTCCATCATGGTGCGCCTTC | suppresses HIV infection as a sense molecule |
